This note sets out measurements from patent publication US20180208664A1 (APOGENIX, published 2018).

The experiment addresses T1, APG293 (human CD95L-T4) (human).
T1 chain: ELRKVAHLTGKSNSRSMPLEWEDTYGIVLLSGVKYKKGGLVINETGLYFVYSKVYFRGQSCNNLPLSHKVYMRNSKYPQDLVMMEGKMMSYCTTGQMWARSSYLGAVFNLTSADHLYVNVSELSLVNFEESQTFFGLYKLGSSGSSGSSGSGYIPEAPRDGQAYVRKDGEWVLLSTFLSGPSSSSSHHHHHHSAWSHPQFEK
Put plainly: cell-based or functional assay.

B1: scFv-minibody SEQ ID 38 (scFv)
scFv: EVQLVESGGGLVQPGGSLRLSCAASGFSFSSGYDMCWVRQAPGKGLEWVACIDTDNDATYYASWAKGRFTISKDSSKNTLYLQMNSLRAEDTAVYYCARTHGDYVAFKLWGQGTLVTVSGGGSGGGSGGGSGGGSDIQMTQSPSSLSASVGDRVTITCQSSQSVYKNNDLSWYQQKPGKAPKLLIYQASKLASGVPSRFSGSGSGTDFTLTISSLQPEDFATYYCAGGYTASIYAFGQGTKVEIKGSGSSGQPREPQVYTLPPSREEMTKNQVSLTCLVKGFYPSDIAVEWESQGSPENNYKTTPPVLDSDGSFFLYSKLTVDKSRWQQGNVFSCSVMHEALHNHYTQKSLSLSPGSSSSSSAWSHPQFEK
For the molecule B1, the “EC50, Assay 1: antagonism of CD95L-T4-induced apoptosis on Jurkat A3 cells” value (from here on “EC50, Assay 1: antagonism”) came to 0.118 µg/mL; the “EC50, Assay 2: antagonism of CD95L-T4-induced apoptosis on Jurkat A3 cells” value (“EC50, Assay 2: antagonism” below) amounted to 0.114 µg/mL; the “EC50, Assay 5: antagonism of CD95L-T4-induced apoptosis on Jurkat A3 cells” value (shortened to “EC50, Assay 5: antagonism”) is 0.0957 µg/mL; the “EC50, Assay 6: antagonism of CD95L-T4-induced apoptosis on Jurkat A3 cells” value (shortened to “EC50, Assay 6: antagonism”) is 0.111 µg/mL. Also, the “EC50, Mean: antagonism of CD95L-T4-induced apoptosis on Jurkat A3 cells” value (shortened to “EC50, Mean: antagonism”) was found to be 0.11 µg/mL.

B2: scFv-minibody SEQ ID 40 (scFv)
scFv: EVQLVESGGGLVQPGGSLRLSCAASGFSFSSGYDMSWVRQAPGKGLEWVSAIDTDNDATYYADSVKGRFTISKDSSKNTLYLQMNSLRAEDTAVYYCARTHGDYVAFKLWGQGTLVTVSGGGSGGGSGGGSGGGSDIQMTQSPSSLSASVGDRVTITCQSSQSVYKNNDLSWYQQKPGKAPKLLIYQASKLASGVPSRFSGSGSGTDFTLTISSLQPEDFATYYCAGGYTASIYAFGQGTKVEIKGSGSSGQPREPQVYTLPPSREEMTKNQVSLTCLVKGFYPSDIAVEWESQGSPENNYKTTPPVLDSDGSFFLYSKLTVDKSRWQQGNVFSCSVMHEALHNHYTQKSLSLSPGSSSSSSAWSHPQFEK
In the case of B2, the “EC50, Assay 1: antagonism” value is 0.532 µg/mL; the “EC50, Assay 2: antagonism” value came to 0.591 µg/mL; the “EC50, Assay 5: antagonism” value was 0.701 µg/mL; the “EC50, Assay 6: antagonism” value amounted to 0.571 µg/mL. The “EC50, Mean: antagonism” value was 0.599 µg/mL.

B3: scFv-minibody SEQ ID 39 (scFv)
scFv: EVQLVESGGGLVQPGGSLRLSCAASGFSFSSGYDMCWVRQAPGKGLEWVACIDTDNDATYYADSVKGRFTISKDSSKNTLYLQMNSLRAEDTAVYYCARTHGDYVAFKLWGQGTLVTVSGGGSGGGSGGGSGGGSDIQMTQSPSSLSASVGDRVTITCQSSQSVYKNNDLSWYQQKPGKAPKLLIYQASKLASGVPSRFSGSGSGTDFTLTISSLQPEDFATYYCAGGYTASIYAFGQGTKVEIKGSGSSGQPREPQVYTLPPSREEMTKNQVSLTCLVKGFYPSDIAVEWESQGSPENNYKTTPPVLDSDGSFFLYSKLTVDKSRWQQGNVFSCSVMHEALHNHYTQKSLSLSPGSSSSSSAWSHPQFEK
In the case of B3, the “EC50, Assay 1: antagonism” value is 0.0994 µg/mL; the “EC50, Assay 2: antagonism” value was 0.105 µg/mL; the “EC50, Assay 5: antagonism” value was found to be 0.0865 µg/mL; the “EC50, Assay 6: antagonism” value stood at 0.0834 µg/mL. Moreover, the “EC50, Mean: antagonism” value is 0.093 µg/mL.

B4: scFv-minibody SEQ ID 48 (scFv)
scFv: QSLEESGGDLVKPGGTLTLTCTTSGFSFSDHYWMCWVRQAPGKGLEWIACIYTADSDSYYASWAKGRFTISKTSSTTVTLQMTSLTAADTATYFCARNGAYAGGPYGDLWGPGTLVTVSGGGSGGGSGGGSGGGSDIVMTQTPSSVEAAVGGTVTIKCQASQSIRTSLVWYQQKPGQPPKLLIYKASDLPSGVPSRFKGSGSGTQFTLTISDLESADAATYYCQSYDFRDTINNGHSFGGGTEVVVKGSGSSGQPREPQVYTLPPSREEMTKNQVSLTCLVKGFYPSDIAVEWESQGSPENNYKTTPPVLDSDGSFFLYSKLTVDKSRWQQGNVFSCSVMHEALHNHYTQKSLSLSPGSSSSSSAWSHPQFEK
Consider B4, for which the “EC50, Assay 3: antagonism of CD95L-T4-induced apoptosis on Jurkat A3 cells” value (from here on “EC50, Assay 3: antagonism”) came to 0.116 µg/mL; the “EC50, Assay 4: antagonism of CD95L-T4-induced apoptosis on Jurkat A3 cells” value (“EC50, Assay 4: antagonism” below) amounted to 0.0908 µg/mL; the “EC50, Assay 5: antagonism” value was determined as 0.0844 µg/mL; the “EC50, Assay 6: antagonism” value is 0.0975 µg/mL. Besides, the “EC50, Mean: antagonism” value was found to be 0.097 µg/mL.

B5: scFv-minibody SEQ ID 37 (scFv)
scFv: QSLEESGGDLVKPGASLTLTCTASGFSFSSGYDMCWVRQAPGKGLEWIACIDTDNDATYYASWAKGRFTISKPSSTTVLLQITSLTAADTATYFCATTHGDYVAFKLWGPGTLVTVSGGGSGGGSGGGSGGGSQVLTQTASSVSAAVGGTVTINCQSSQSVYKNNDLSWYQQKPRQPPKLLIYQASKLASGVPSRFKGSGSGTQFTLTIGDLESDDGATYYCAGGYTASIYAFGGGTEVVGSGSSGQPREPQVYTLPPSREEMTKNQVSLTCLVKGFYPSDIAVEWESQGSPENNYKTTPPVLDSDGSFFLYSKLTVDKSRWQQGNVFSCSVMHEALHNHYTQKSLSLSPGSSSSSSAWSHPQFEK
For the molecule B5, the “EC50, Assay 1: antagonism” value is 0.124 µg/mL; the “EC50, Assay 2: antagonism” value turned out to be 0.117 µg/mL; the “EC50, Assay 5: antagonism” value was found to be 0.113 µg/mL; the “EC50, Assay 6: antagonism” value is 0.118 µg/mL. The “EC50, Mean: antagonism” value amounted to 0.118 µg/mL.

B6: APG101 (Fc fusion, UniProt P25445 26-173, looked up, not shown: a dimerising Fc or GST)
chain: QVTDINSKGLELRKTVTTVETQNLEGLHHDGQFCHKPCPPGERKARDCTVNGDEPDCVPCQEGKEYTDKAHFSSKCRRCRLCDEGHGLEVEINCTRTQNTKCRCKPNFFCNSTVCEHCDPCTKCEHGIIKECTLTSNTKCKEEGSRSN
Take B6: the “EC50, Assay 1: antagonism” value came to 0.774 µg/mL; the “EC50, Assay 2: antagonism” value was 0.789 µg/mL; the “EC50, Assay 3: antagonism” value stood at 0.707 µg/mL; the “EC50, Assay 4: antagonism” value came to 0.714 µg/mL. Besides, the “EC50, Mean: antagonism” value was found to be 0.746 µg/mL.

B7: scFv-minibody SEQ ID 49 (scFv)
scFv: EVQLVESGGGLVQPGGSLRLSCAASGFSFSDHYWMCWVRQAPGKGLEWVACIYTADSDSYYASWAKGRFTISKDSSKNTLYLQMNSLRAEDTAVYYCARNGAYAGGPYGDLWGQGTLVTVSGGGSGGGSGGGSGGGSDIQMTQSPSSLSASVGDRVTITCKASQSIRTSLVWYQQKPGKAPKLLIYKASDLPSGVPSRFSGSGSGTDFTLTISSLQPEDFATYYCQSYDFRDTINNGHSFGQGTKVEIKGSGSSGQPREPQVYTLPPSREEMTKNQVSLTCLVKGFYPSDIAVEWESQGSPENNYKTTPPVLDSDGSFFLYSKLTVDKSRWQQGNVFSCSVMHEALHNHYTQKSLSLSPGSSSSSSAWSHPQFEK
As for B7, the “EC50, Assay 3: antagonism” value was 0.172 µg/mL; the “EC50, Assay 4: antagonism” value turned out to be 0.144 µg/mL; the “EC50, Assay 5: antagonism” value was 0.117 µg/mL; the “EC50, Assay 6: antagonism” value was 0.127 µg/mL. In addition, the “EC50, Mean: antagonism” value was 0.14 µg/mL.

B8: scFv-minibody SEQ ID 51 (scFv)
scFv: EVQLVESGGGLVQPGGSLRLSCAASGFSFSDHYWMSWVRQAPGKGLEWVSAIYTADSDSYYADSVKGRFTISKDSSKNTLYLQMNSLRAEDTAVYYCARNGAYAGGPYGDLWGQGTLVTVSGGGSGGGSGGGSGGGSDIQMTQSPSSLSASVGDRVTITCKASQSIRTSLVWYQQKPGKAPKLLIYKASDLPSGVPSRFSGSGSGTDFTLTISSLQPEDFATYYCQSYDFRDTINNGHSFGQGTKVEIKGSGSSGQPREPQVYTLPPSREEMTKNQVSLTCLVKGFYPSDIAVEWESQGSPENNYKTTPPVLDSDGSFFLYSKLTVDKSRWQQGNVFSCSVMHEALHNHYTQKSLSLSPGSSSSSSAWSHPQFEK
As for B8, the “EC50, Assay 3: antagonism” value turned out to be 1.55 µg/mL; the “EC50, Assay 4: antagonism” value amounted to 2.26 µg/mL; the “EC50, Assay 5: antagonism” value came out at 1.48 µg/mL; the “EC50, Assay 6: antagonism” value worked out at 1.74 µg/mL. Further, the “EC50, Mean: antagonism” value worked out at 1.76 µg/mL.

B9: scFv-minibody SEQ ID 50 (scFv)
scFv: EVQLVESGGGLVQPGGSLRLSCAASGFSFSDHYWMCWVRQAPGKGLEWVACIYTADSDSYYADSVKGRFTISKDSSKNTLYLQMNSLRAEDTAVYYCARNGAYAGGPYGDLWGQGTLVTVSGGGSGGGSGGGSGGGSDIQMTQSPSSLSASVGDRVTITCKASQSIRTSLVWYQQKPGKAPKLLIYKASDLPSGVPSRFSGSGSGTDFTLTISSLQPEDFATYYCQSYDFRDTINNGHSFGQGTKVEIKGSGSSGQPREPQVYTLPPSREEMTKNQVSLTCLVKGFYPSDIAVEWESQGSPENNYKTTPPVLDSDGSFFLYSKLTVDKSRWQQGNVFSCSVMHEALHNHYTQKSLSLSPGSSSSSSAWSHPQFEK
For B9, the “EC50, Assay 3: antagonism” value is 0.169 µg/mL; the “EC50, Assay 4: antagonism” value is 0.136 µg/mL; the “EC50, Assay 5: antagonism” value came to 0.128 µg/mL; the “EC50, Assay 6: antagonism” value worked out at 0.14 µg/mL. Besides, the “EC50, Mean: antagonism” value came to 0.143 µg/mL.
